{
  "source": "paper PMC6614809",
  "about": "“The ATP-dependent chromatin remodelling enzyme Uls1 prevents Topoisomerase II poisoning” (Nucleic Acids Research, 2019)",
  "molecular_target": "T1, Full length Top2 (HFP185), purified (budding yeast (S. cerevisiae), UniProt P06786 1-1428)",
  "T1 construct": "Topoisomerase II (Top2), yeast, full length; Called a homodimer in the methods; also called Topoisomerase II; yeast Top2",
  "T1 sequence (looked up)": "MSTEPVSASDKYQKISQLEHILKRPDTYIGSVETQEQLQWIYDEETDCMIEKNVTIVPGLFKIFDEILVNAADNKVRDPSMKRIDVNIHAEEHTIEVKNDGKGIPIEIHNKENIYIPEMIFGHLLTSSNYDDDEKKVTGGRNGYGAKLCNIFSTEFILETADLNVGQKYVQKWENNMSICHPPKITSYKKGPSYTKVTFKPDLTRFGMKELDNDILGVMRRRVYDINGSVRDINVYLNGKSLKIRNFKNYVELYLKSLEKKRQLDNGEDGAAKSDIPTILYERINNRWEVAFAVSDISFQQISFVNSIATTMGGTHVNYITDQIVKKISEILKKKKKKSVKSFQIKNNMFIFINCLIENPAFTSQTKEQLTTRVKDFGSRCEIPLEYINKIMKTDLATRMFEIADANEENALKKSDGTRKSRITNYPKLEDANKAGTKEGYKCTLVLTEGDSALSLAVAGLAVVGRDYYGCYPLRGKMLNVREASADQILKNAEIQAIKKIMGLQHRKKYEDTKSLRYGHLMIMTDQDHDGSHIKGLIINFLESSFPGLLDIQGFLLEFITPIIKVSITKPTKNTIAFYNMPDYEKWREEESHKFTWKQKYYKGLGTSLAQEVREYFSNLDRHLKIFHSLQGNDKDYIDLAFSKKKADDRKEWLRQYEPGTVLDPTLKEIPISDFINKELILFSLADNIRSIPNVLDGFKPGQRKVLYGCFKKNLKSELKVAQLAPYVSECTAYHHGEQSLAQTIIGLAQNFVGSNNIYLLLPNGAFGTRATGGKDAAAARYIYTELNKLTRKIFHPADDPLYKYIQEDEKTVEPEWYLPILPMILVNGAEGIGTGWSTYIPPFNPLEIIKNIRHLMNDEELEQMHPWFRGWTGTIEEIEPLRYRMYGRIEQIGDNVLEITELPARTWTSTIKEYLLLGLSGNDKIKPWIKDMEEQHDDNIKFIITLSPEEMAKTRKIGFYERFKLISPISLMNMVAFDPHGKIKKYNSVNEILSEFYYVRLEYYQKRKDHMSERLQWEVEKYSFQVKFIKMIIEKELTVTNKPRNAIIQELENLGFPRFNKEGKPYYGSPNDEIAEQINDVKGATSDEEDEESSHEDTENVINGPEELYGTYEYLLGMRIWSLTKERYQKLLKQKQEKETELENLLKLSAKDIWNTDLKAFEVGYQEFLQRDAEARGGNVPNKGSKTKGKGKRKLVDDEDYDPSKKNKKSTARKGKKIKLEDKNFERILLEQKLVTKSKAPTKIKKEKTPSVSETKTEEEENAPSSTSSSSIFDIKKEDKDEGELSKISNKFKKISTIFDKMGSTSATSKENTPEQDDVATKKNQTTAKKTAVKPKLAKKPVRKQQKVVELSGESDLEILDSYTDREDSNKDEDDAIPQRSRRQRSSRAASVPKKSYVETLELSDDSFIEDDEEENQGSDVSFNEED",
  "assay": "pull-down; about 0.1 mg Uls1 fragment (bait) pre-bound to Strep-Tactin superflow beads; 200 ul Top2 (prey, 0.1 mg/ml) added, 1 h at 4 C; Pulldown buffer 25 mM HEPES pH 7.5, 150 mM KCl, 3 mM MgCl2, 5% glycerol, 1 mM DTT, 0.1% NP-40; three washes",
  "conditions": "both partners purified",
  "data": [
    {"binder": "Uls1 fragment 350-655, purified bait (domain or fragment, budding yeast (S. cerevisiae), UniProt Q08562 350-655, looked up, Tags are inferred from the resins used; also called bait protein; source: E. coli BL21(DE3)RIL, purified (TALON resin)) PSKNMDHTTHNSHDSEQKNSSIIILSDEDESGAGINDIESPLKVSEPNTADALRSSVPEVISLLDLPNIDLNNSVIKEASGSNSIPTSETDAQSSSSSVLQGTIMTEQATQSSQHECNSSLDTLKKNHQKLLKDLNSRESELRNALSCCKTNSEILRRKLSRREKEVSDAEKHWQLLLTSMARGGRTISSTQQILVDEAENQLNKLKEKRQLTKSKLDSINLKMYNYNEQWKSFVHSKNINLQKSLAALERSARDSKASATVNKRNECLAEKEKLDQMLKEGTLSFSTYKQLTGEIQQKLNDLKLG", "values": [
      {"measurement": "binding result", "result": "binds"}
    ]}
  ]
}
